Measured values: paper PMC5602300

Experiments:
[1] = target: taxol-stabilized microtubules (pelleting assays) (UniProt P02550); assay: co-sedimentation; microtubule pelleting with increasing taxol-stabilized microtubules; ~5 nM Astrin-SKAP complex, BRB80 with 25 mM KCl, 0.5 mg/mL BSA, room temperature 10 min, glycerol cushion; α-SKAP Western blot; apparent
[2] = target: taxol-stabilized microtubules (pelleting assays) (UniProt P02550); assay: co-sedimentation; as a5 with increasing microtubules, in the presence of an added Ndc80 complex (1 µM Ndc80 Bonsai; Ndc80 Broccoli); apparent

| Kd [1] [µM] | apparent KD in the presence of 1 µM Ndc80 Bonsai complex [2] [µM] | Substance |
| --- | --- | --- |
| 3.2 | 1.4 | Astrin 1–693 complex (Astrin 1–693, SKAP, LC8, MYCBP) (from UniProt Q96R06 1-693; P63167 1-89; Q99417 1-103) |
| 2.2 | 1.7 | Astrin 465–693 complex (Astrin 465–693, SKAP, LC8, MYCBP) (from UniProt Q96R06 465-693; P63167 1-89; Q99417 1-103) |
